Results: article PMC8131196, “Structure and dynamics of a mycobacterial type VII secretion system” (Nature, 2021)

What was measured:
Experiment in all cases: cryo-EM structure
EccB5 = target: T1, EccB5 (M. tuberculosis H37Rv, UniProt P9WNQ9 1-506); conditions: both partners purified
T1 construct: also called inner EccB5; outer EccB5
T1 sequence: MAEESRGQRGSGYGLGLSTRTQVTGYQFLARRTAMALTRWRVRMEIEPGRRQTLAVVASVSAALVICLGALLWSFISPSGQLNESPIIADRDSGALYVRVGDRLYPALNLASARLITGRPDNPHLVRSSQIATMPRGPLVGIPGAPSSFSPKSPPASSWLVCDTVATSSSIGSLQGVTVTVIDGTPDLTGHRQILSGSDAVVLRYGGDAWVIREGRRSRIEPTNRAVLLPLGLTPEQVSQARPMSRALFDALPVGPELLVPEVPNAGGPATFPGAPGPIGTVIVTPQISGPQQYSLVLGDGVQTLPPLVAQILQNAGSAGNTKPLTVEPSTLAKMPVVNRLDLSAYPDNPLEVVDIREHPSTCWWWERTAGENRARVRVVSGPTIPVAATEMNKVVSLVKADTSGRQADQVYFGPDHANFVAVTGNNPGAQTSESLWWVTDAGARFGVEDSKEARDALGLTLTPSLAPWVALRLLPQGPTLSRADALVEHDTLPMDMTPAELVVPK

EccC5 = target: T2, EccC5 (M. tuberculosis H37Rv, UniProt P9WNA5 1-1391); conditions: both partners purified
T2 construct: also called EccC5 ATPase; not shown: TwinStrep, C-terminal, kept
T2 sequence: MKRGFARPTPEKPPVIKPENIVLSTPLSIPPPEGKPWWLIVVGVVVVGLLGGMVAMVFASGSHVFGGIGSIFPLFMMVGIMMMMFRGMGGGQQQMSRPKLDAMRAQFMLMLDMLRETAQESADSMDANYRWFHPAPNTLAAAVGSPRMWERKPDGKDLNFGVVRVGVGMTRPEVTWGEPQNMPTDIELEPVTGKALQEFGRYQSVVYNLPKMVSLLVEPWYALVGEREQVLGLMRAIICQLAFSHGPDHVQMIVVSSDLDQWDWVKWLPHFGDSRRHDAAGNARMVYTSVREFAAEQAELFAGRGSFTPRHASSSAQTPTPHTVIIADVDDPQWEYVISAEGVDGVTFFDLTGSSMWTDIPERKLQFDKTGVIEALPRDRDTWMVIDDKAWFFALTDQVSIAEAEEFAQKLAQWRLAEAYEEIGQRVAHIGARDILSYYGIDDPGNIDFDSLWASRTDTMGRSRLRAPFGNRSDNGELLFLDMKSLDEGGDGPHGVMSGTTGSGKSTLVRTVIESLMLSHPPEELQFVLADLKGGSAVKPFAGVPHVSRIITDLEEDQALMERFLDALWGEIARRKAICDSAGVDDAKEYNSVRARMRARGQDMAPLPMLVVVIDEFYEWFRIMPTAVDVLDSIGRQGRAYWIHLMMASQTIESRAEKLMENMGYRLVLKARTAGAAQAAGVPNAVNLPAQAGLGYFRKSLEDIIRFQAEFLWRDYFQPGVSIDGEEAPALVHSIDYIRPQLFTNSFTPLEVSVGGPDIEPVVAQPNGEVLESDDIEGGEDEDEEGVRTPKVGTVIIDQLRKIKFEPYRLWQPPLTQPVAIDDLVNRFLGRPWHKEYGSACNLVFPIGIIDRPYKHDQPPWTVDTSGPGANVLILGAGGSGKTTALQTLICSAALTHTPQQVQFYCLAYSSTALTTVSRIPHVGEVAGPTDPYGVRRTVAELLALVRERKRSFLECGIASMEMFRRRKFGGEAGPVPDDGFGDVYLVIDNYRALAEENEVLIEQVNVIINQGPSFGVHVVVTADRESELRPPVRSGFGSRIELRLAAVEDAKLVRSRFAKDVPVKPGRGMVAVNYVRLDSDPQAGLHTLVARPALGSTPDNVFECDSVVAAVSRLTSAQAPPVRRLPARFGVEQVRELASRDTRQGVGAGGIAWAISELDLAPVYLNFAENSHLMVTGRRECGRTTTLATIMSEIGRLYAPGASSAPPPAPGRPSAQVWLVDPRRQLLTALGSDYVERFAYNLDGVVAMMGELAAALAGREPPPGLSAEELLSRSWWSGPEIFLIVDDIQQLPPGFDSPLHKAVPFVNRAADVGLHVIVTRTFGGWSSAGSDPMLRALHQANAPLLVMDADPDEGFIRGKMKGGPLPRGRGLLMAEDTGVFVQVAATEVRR

MycP5 protease = target: T3, MycP5 protease (M. tuberculosis H37Rv, UniProt O53945 40-585); conditions: both partners purified
T3 construct: also called mycosin
T3 sequence: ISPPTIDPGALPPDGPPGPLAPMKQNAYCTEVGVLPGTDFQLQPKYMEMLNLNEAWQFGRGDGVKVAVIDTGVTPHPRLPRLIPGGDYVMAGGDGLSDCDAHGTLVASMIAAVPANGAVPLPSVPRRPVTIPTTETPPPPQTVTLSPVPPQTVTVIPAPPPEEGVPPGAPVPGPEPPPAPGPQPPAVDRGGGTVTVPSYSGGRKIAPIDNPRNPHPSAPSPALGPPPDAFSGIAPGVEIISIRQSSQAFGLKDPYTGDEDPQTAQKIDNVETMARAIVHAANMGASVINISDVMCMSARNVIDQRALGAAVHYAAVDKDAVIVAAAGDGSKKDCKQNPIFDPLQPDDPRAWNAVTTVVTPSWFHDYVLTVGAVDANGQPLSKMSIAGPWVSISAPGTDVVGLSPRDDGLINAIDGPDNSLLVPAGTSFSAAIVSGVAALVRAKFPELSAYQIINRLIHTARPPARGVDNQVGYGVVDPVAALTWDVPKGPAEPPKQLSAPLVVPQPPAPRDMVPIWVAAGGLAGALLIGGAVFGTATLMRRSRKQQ

cryo-EM structure = target: the molecule itself

B1: EccD5 (natural protein)
chain: MTAVADAPQADIEGVASPQAVVVGVMAGEGVQIGVLLDANAPVSVMTDPLLKVVNSRLRELGEAPLEATGRGRWALCLVDGAPLRATQSLTEQDVYDGDRLWIRFIADTERRSQVIEHISTAVASDLSKRFARIDPIVAVQVGASMVATGVVLATGVLGWWRWHHNTWLTTIYTAVIGVLVLAVAMLLLMRAKTDADRRVADIMLMSAIMPVTVAAAAAPPGPVGSPQAVLGFGVLTVAAALALRFTGRRLGIYTTIVIIGALTMLAALARMVAATSAVTLLSSLLLICVVAYHAAPALSRRLAGIRLPVFPSATSRWVFEARPDLPTTVVVSGGSAPVLEGPSSVRDVLLQAERARSFLSGLLTGLGVMVVVCMTSLCDPHTGQRWLPLILAGFTSGFLLLRGRSYVDRWQSITLAGTAVIIAAAVCVRYALELSSPLAVSIVAAILVLLPAAGMAAAAHVPHTIYSPLFRKFVEWIEYLCLMPIFPLALWLMNVYAAIRYR
notes: also called inner EccD5; outer EccD5
- binding result (EccB5): binds
- binding result (EccC5): binds
- binding result (MycP5 protease): binds
- stoichiometry N (cryo-EM structure): 2
